# From US20260097113A1 (Pfizer, published 2026)
# T1: RSV F protein of subtype A comprising a polypeptide of SEQ ID NO: 1 and a polypeptide of SEQ ID NO: 2 (RSV subtype A, UniProt P11209 137-513; P03420 26-109)
# T1 construct: Stabilized prefusion F trimer made of three F2-F1 heterodimers; Produced recombinantly in CHO cells; also called RSV A; RSVA
# T1 chain 1: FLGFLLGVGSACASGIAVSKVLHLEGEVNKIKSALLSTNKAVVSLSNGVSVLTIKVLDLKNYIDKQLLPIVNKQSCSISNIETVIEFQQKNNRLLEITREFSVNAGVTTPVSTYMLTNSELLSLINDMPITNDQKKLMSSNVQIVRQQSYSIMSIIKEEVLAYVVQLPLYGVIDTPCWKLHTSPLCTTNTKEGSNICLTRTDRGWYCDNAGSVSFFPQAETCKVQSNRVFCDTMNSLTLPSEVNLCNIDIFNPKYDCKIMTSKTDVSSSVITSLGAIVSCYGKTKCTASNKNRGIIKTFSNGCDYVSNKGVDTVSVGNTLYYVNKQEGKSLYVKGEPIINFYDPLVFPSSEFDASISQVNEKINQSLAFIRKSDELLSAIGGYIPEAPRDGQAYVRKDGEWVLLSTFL
# T1 chain 2: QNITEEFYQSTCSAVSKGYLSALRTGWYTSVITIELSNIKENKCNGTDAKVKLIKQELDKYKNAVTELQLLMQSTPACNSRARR
# Experiments:
# [1] = molecular target: RSV A + RSV B bivalent composition (RSV subtype A; RSV subtype B); assay: AM14 Fab titration by SEC; High-Slow 1 cycle; T0
# [2] = molecular target: RSV A + RSV B bivalent composition (RSV subtype A; RSV subtype B); assay: AM14 Fab titration by SEC; High-Slow 2 cycle; T0 (second value)
# [3] = molecular target: T1, RSV F protein of subtype A comprising a …; assay: AM14 ELISA; F2 (pH 8, 0 mM NaCl, 0% sucrose); 1 wk 5°C
# [4] = molecular target: T1, RSV F protein of subtype A comprising a …; assay: AM14 ELISA; F7 (pH 6, 100 mM NaCl, 0% sucrose); 2 wk 5°C
# [5] = molecular target: T1, RSV F protein of subtype A comprising a …; assay: AM14 ELISA; F9 (pH 8, 50 mM NaCl, 4.5% sucrose); 2 wk 5°C
Molecule,Prefusion Content (%) [1] [%],Prefusion Content (%) [2] [%],"AM14 prefusion content (%), relative to standard [3] [%]","AM14 prefusion content (%), relative to standard [4] [%]","AM14 prefusion content (%), relative to standard [5] [%]"
AM14 Fab,64,73,,,
"AM14 (trimeric prefusion specific antibody of the AM14 ELISA) (antibody, V domains shown, Antibody as used in the AM14 ELISA, detected with an HRP-labeled secondary antibody) VH: EVQLVESGGGVVQPGRSLRLSCAASGFSFSHYAMHWVRQAPGKGLEWVAVISYDGENTYYADSVKGRFSISRDNSKNTVSLQMNSLRPEDTALYYCARDRIVDDYYYYGMDVWGQGATVTVSS VL: DIQMTQSPSSLSASVGDRVTITCQASQDIKKYLNWYHQKPGKVPELLMHDASNLETGVPSRFSGRGSGTDFTLTISSLQPEDIGTYYCQQYDNLPPLTFGGGTKVEIKR",,,86,38,92
